# Experimental data published in the DeepSol protein solubility set.
# Test: soluble on expression in E. coli; label from the status in PepcDB or PDB records
row,Sequence,soluble on expression in E. coli
1,MAHHHHHHMNHVRHALDMDNEYTMVLDIGTIRRPAAQHRSESFMAASTTEWETKVERAERLSLLEGKKGCCYFSLYPEDVSAAFHEDAKSFPDVFSVEDAFVHCARLNLPMGEVAALLPAIPTETAEQVMHNLAEKCVIASPQSLAMTFLGEMSARLPVDLDIASFIIGGCNVGLGEAAVAIGSVAALPFRSITPLTYSSVPWNEATTWSREKYAGDIARHSDLLADTLVFIEWLKLRARGESTAEFLNTILVQEFKFVKIEGLMKYIREQLTNYVFLDRFDTLELLEDVSTSVQENSTIFLFLQAVALARRAAFIRDAGHLNEKDRYASMAFVRTSKRLMPHNYIPSSIKWDTGRILIPVILKNSTNILAGLFSLIHTPYFFASLLLLYPYVEYSKPVITDKGRVVYFGVSCNRQMKRFMVSIEEAAQILDFREKINLALSCMQALRTLSHPILKTKFLLILKKHDRLFDVERLHKNIRSQLLELVTELNVTEHQGSFETFATHCTAPKELLPMTDTPAMDVSVLRRFVDGTLWDSLPTPGSVVKPRAASFAGTPSTLPSAPLISTNDEDDDEEVEIIQDSYFMRHGPLIEDDDDD,not soluble
2,HMDIRTITSSDYEMVTSVLNEWWGGRQLKEKLPRLFFEHFQDTSFITSEHNSMTGFLIGFQSQSDPETAYIHFSGVHPDFRKMQIGKQLYDVFIETVKQRGCTRVKCVTSPVNKVSIAYHTKLGFDIEKGTKTVNGISVFANYDGPGQDRVLFVKNI,soluble
3,MALKTDIRGMIWRYPDYFIVGREQCREFARAVKCDHPAFFSEEAAADLGYDALVAPLTFVTILAKYVQLDFFRHVDVGMETMQIVQVDQRFVFHKPVLAGDKLWARMDIHSVDERFGADIVVTRNLCTNDDGELVMEAYTTLMGQQGDGSARLKWDKESGQVIRTALEHHHHHH,not soluble
4,MPQFASKAEEKNYYERQASLAEFLTWYHQQELPEYEKPSLTVDMVLLCYNKEADQLKVLLIQRKGHPFRNSWALPGGFVNRNESTEDSVLRETKEETGVVISQENIEQLHSFSRPDRDPRGWVVTVSYLAFIGEEPLIAGDDAKEVHWFNLERHGQHITLSHEDVEITLDLKTAASLGKDTLAFDHSEIIIKAFNRVVDKMEHEPQVLQVLGKDFTITEARKVFAKFLGVDYRSIDHSNFKKAMTQYFEELGERPVGIGRPSKIYQLKTTTGF,soluble
5,MSLEDQALFGYARYGKVDDVVYPSVIASGNGINYGDSDIEILGDRIPRQILYPAKIKQEILETDKLVIIPNGAELVRKPKDLVRIIMDIHSRYGFSKLIMISGISDPYSIPALVYLGISFFDSSILEMEGKMGYRFTPFGIEKADHDVSSENAIFISDMMHIIQRSISDGTLRELIEKAVISSKAAEMVRIADYSYYQDFESVFPVRTPYIKANTIEDLYRPDLIRYRNYISESYVKPDADIALILPCSAKKPYSRSKSHQKVIGALGNLRRFIHEVIVTSPIGIVPRDLEETYPARFYDIPVIGLWYEDEKIMMKRMMSSYMGRNRYRKVIAFIPEDLDFITEAIPYPHEVIEFKSSNLQRLREVIQREIAGGKAVNQKVAKYNSILRYQFGEWILPLVSGYTIRRNYNQDMIVKDGKILFVYNENLGKFTINKASADMFIKNGKFLVEIDDFKPTSNVYAMGVVDATEDIRQEDEVVLVHSGEVRGVGIAKMPARAMIELKKGIAVKVREGHHHHHH,soluble
6,MLLNLQKILKKWVICTLPKPNVTFLAIKFFNLKNEFLFFSKFCKKQPKFEILNVSYCSQNFQKYRIQYLNYFKISTFFSIKKSHIQV,not soluble
7,MSLEHLHELVGSVDVVLSDIWGVVHNGLESFPDACAALKTARDQGRTVVLITNAPRPADSVQRQLRKLDVPDDCYDAIVSSGDLTRIYVAEHPGQSIYWLGPDRDNSIYRGLDAVLTPLEKADYIICTGPFDDETESAEDYREMMGQALERKLTLVCANPDIVVERGDRLIYCAGAIAELYRELGGDVIFYGKPHRPIYDRAMALAREIRGVDTPVQRVLAIGDSVRTDLAGAQGYGIDLLFVTRGIHADAFEGIDRLDTAAVNELFGHPPLALTRELREGHHHHHH,soluble
8,GPGSMMEATERRRKRERNERNDERRDDCEVLAKTDEKRTIVEELFQRLQSLDHTHMELEARLCRRAEVSDKSGSTSSEREWKGRRARKTRTEVMPGVAEEDYKRIEEFCLDKGKEGSVTRSTTRDVSFGQWRYTYTSGKPSECIACIRKERLFVLDVPVPSGAYDIRFSACTEITGELPSPNFAPTRGYTRHKDRLSVTDGLFRYDLTRVRDKHTTGYEVEVEFLLKDNDEKKITDSHVEELVGRALSLATLTASEG,soluble
9,MHNISAKKFLGYLKNKCLEFGVKVIEGNPAYTSIKCPNCGSRLSQLYKLADERALPSRLMYCFDCGFYADRDTVAVFNLIKRFTGLYPFSPKSNEPIAEGTVFPDEAMGLEHHHHHH,soluble
10,SFVPSQKTYQGNYGFHLGFLQSGTAKSVMCTYSPPLNKLFCQLAKTCPVQLWVSATPPAGSRVRAMAIYKKSQHMTEVVRRCPHHERCSDGDGLAPPQHLIRVEGNLYPEYLEDRQTFRHSVVVPYEPPEAGSEYTTIHYKYMCNSSCMGGMNRRPILTIITLEDSSGNLLGRDSFEVRVCACPGRDRRTEEENFRKKEVL,soluble
11,MSDEALTLLFSAVENGDQNCIDLLCNLALRNDDLGHRVEKFLFDLFSGKRTGSSDIDKKINQACLVLHQIANNDITKDNTEWKKLHAPSRLLYMAGSATTDLSKKIGIAHKIMGDQFAQTDQEQVGVENLWCGARMLSSDELAAATQGLVQESPLLSVNYPIGLIHPTTKENILSTQLLEKIAQSGLSHNEVFLVNTGDHWLLCLFYKLAEKIKCLIFNTYYDLNENTKQEIIEAAKIAGISESDEVNFIEMNLQNNVPNGCGLFCYHTIQLLSNAGQNDPATTLREFAENFLTLSVEEQALFNTQTRRQIYEYSLQ,not soluble
12,MNVERWAQALKEEYPRGLLGEREALVSLLVGKGLSHAEAVEVARALEAQGYAHFLPGERPRWFFSSRSLDLKALMRALDQEFPEFVGEGDEEEEALAFLAARLGDREVAREVLEAMRAAGYVERAYSPELARDRLFFRFPEALRLLG,soluble
13,GSHMSGKARLHYPVTRQGEQVDHYFGQAVADPYRWLEDDRSPETEAWVKAQNAVTQDYLAQIPYRAAIKEKLAASWNYAKEGAPFREGRYHYFFKNDGLQNQNVLWRQQEGKPAEVFLDPNTLSPDGTTALDQLSFSRDGRILAYSLSLAGSDWREIHLMDVESKQPLETPLKDVKFSGISWLGNEGFFYSSYDKPDGSELSARTDQHKVYFHRLGTAQEDDRLVFGAIPAQHHRYVGATVTEDDRFLLISAANSTSGNRLYVKDLSQENAPLLTVQGDLDADVSLVDNKGSTLYLLTNRDAPNRRLVTVDAANPGPAHWRDLIPERQQVLTVHSGSGYLFAEYMVDATARVEQFDYEGKRVREVALPGLGSVSGFNGKHDDPALYFGFENYAQPPTLYRFEPKSGAISLYRASAAPFKPEDYVSEQRFYQSKDGTRVPLIISYRKGLKLDGSNPTILYGYGGFDVSLTPSFSVSVANWLDLGGVYAVANLRGGGEYGQAWHLAGTQQNKQNVFDDFIAAAEYLKAEGYTRTDRLAIRGGSNGGLLVGAVMTQRPDLMRVALPAVGVLDMLRYHTFTAGTGWAYDYGTSADSEAMFDYLKGYSPLHNVRPGVSYPSTMVTTADHNDRVVPAHSFKFAATLQADNAGPHPQLIRIETNAGHGAGTPVAKLIEQSADIYAFTLYEMGYRELPRQP,soluble
14,MGSDKIHHHHHHMAIKATDLFKLVSLSYPSATDDGYFVQENRISEADNTYYQRICFVNHRGGTIAYGFDQKHDRHPLLSPDQQWLAFLSQASDKTTQVFLQAVNGGTAKQFSAEKEGVSYFGWQADSQALFIQTTVGAKPKKTDKQWPQPVTVSRVPYKLNGVGLLPEHVAYELRVQRLRQKTSRLVMGREHEFEVGAISPDGQTLAFTAERLPDDPNDFSQATYLLNLADQQVTMVNDQLPQAALSPEAFSADGKQLLLVGSDNHLPNVSQSHLWHYDLATKTLQDVADDIDFDIPGHVNGDFQQDLSEKVADFATADYYLTIGFDHGKTSLYAGGPDEQLTPLIGGRRHVTDYALTPDHHGVVFTESTMTVPSRLSYFDLATEEEHVIYDPNRRVTRDMGLVTPQTFNFQRDGFEIEGWYFPPQQATASHPAILYVHGGPAVGYGYTFFHEMQFLAA,not soluble
15,MDNEKGLLIVLSGPSGVGKGTVRKRIFEDPSTSYKYSISMTTRQMREGEVDGVDYFFKTRDAFEALIKDDQFIEYAEYVGNYYGTPVQYVKDTMDEGHDVFLEIEVEGAKQVRKKFPDALFIFLAPPSLEHLRERLVGRGTESDEKIQSRINEARKEVEMMNLYDYVVVNDEVELAKNRIQCIVEAEHLKRERVEAKYRKMILEAKK,soluble
16,ISEFMSDITVTNWAGNITYTAKELLRPHSLDALRALVADSARVRVLGSGHSFNEIAEPGDGGVLLSLAGLPSVVDVDTAARTVRVGGGVRYAELARVVHARGLALPNMASLPHISVAGSVATGTHGSGVGNGSLASVVREVELVTADGSTVVIARGDERFGGAVTSLGALGVVTSLTLDLEPAYEMEQHVFTELPLAGLDPATFETVMAAAYSVSLFTDWRAPGFRQVWLKRRTDRPLDGFPYAAPAAEKMHPVPGMPAVNCTEQFGVPGPWHERLPHFRAEFTPSSGAELQSEYLMPREHALAALHAMDAIRETLAPVLQTCEIRTVAADAQWLSPAYGRDTVAAHFTWVEDTAAVLPVVRRLEEALVPFAARPHWGKVFTVPAGELRALYPRLADFGALAGALDPAGKFTNAFVRGVLAG,soluble
17,MRKTRNQAGARQALKQLGMRNTSRSAAPRRGCVLSCFFEHLSLYDHSFFPHHSSQMFLFLKDSRFRKKMASQQDASPPTGYNMGHRHSLTIETNPLHLLPSNMRRFSQADTARHPAAPLLSKLAARQQIPEAVAEKKDDEKPENK,not soluble
18,MGSDKIHHHHHHMRIEVWGGAGEYGRSCYFVKNKETKILFDCGINRSYEDSYPKIEREVVPFLDAVFLSHIHEDHTMGLPLLAKYGYKKKIWTTRYTKEQLPAYYEKWRNYNLAQGWHVPYTDQHVKDLNYVYIDEISNPNEWVQITPTLRFQWGYSGHVLGAVWFLLDMSHTYVFYSGDYSAESNILRANLPEKLHGDIKVAIVDAAYHTDDVSQHERINELCTEIERAAGNKGITLLPLPPLGRAQDIVLYLYKKYKELPIIVDQEILDGFQQMFAYKDWIKNNEELEELMESLKRNIIVMDDDSGTQHSYGIVVMSDANMQTKRAQLYYEQLRHDERNSIIFTGHIAKGSFAEKVLKERVGKECRVKRVPYKVHQSIRDVKEMLNTLSPEHTVLVHALKEDTDRLQKKLSTAGYENVYSLTMERIEVI,not soluble
19,MGSDKIHHHHHHMTQDAQCTRRTDWIPLAREVLDIEIEGIAAMRDRLNGGFVDALTLMARCTGRVVITGLGKSGLVGRKLAATLSSTGTPAFFLHPVEGAHGDMGMLRSDDVIIAISNSGETDELNAILPALRSLGASLIAMTGGLESTLAKSADVVLDTGVRREACPLNLAPTASTTAVLAMGDALAVCLIHWKSFTENDFLRFHPGGSLGHRLSMRVESLMHTENLPVVRETVRTGEALRVLDEGRLGTVLVTDGQGRLSGILTDGDVRRMVCREAGVETASPVANVMVRSPLTARKEFSVAQLIDMMEERAITVLPITGDDGLLLGVVHLHDLLGKGGVKFSR,not soluble
20,MPTPKAFALLGPTAGGKTALALKIAETLPVEIISLDSALVYRDMDIGTAKPSASERAFVPHHLIDIIPPTESYSAARFVEDCTRLVGEISSRGRFALIVGGTMMYFRALTQGLNDLPEADACLRADLDEQKQMYGLDFLYRTLQKVDPETACRLKPNDSQRIGRALEVYYLTGKPMSTHLGSLTSHTLPFDLHTAALIPENRARLHENIALRFHLMLEQGFIGEVENLRRRYPGLTAYSPAIRCVGYRQAWKYLDGKTDFPAFVEKGIAATRQLAKRQLTWLRKTPLDCVADPFSDCTSCTRLIEAAKRFFGA,not soluble
